Molecular target: Endogenous β-catenin of SW480 human colon carcinoma cells (human) (UniProt P35222)
Experiment: cell-based or functional assay

Endogenous β-catenin of SW480 human colon carcinoma cells (human), sequence (P35222 2-781): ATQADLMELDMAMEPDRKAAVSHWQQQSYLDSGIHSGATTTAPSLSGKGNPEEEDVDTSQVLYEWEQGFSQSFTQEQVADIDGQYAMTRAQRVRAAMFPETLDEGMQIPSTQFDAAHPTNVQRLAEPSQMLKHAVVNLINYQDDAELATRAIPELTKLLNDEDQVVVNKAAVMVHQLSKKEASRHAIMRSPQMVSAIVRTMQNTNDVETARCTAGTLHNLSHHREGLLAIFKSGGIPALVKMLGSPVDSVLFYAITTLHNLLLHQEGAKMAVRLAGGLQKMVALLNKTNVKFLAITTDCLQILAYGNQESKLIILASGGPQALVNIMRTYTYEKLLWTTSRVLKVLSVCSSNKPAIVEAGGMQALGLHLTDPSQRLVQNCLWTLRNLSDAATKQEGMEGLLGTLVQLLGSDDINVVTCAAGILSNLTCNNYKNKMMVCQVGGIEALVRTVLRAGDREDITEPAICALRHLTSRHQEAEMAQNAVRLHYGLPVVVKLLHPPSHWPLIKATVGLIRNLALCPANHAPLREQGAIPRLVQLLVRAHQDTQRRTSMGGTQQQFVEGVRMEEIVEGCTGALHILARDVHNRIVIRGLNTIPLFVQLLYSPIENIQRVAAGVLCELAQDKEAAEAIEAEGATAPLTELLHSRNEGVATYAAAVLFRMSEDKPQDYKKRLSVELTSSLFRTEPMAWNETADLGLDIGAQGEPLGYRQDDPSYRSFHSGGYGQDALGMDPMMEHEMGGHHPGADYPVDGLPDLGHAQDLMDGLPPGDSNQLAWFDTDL

“Cytoplasmic tail of N-cadherin (amino acids 752-912) fused to the C-terminus of GFP (from UniProt B2KI42 746-906)” was tested, and the inhibition of luciferase activity (LEF-1-driven transactivation) in SW480 cells was 80%.

Work on “Cytoplasmic tail of mouse E-cadherin (amino acids 735-884) fused to the C-terminus of GFP (from UniProt P09803 720-869)” yielded an inhibition of luciferase activity (LEF-1-driven transactivation) in SW480 cells of 75%.

Work on “GFP-E72 (C-terminal 72 amino acids of mouse E-cadherin, residues 813-884, fused to the C-terminus of GFP) (from UniProt P09803 798-869)” yielded an inhibition of luciferase activity (LEF-1-driven transactivation) in SW480 cells of 60%.

Substance “GFP-N71 (C-terminal 71 amino acids of N-cadherin, residues 842-912, fused to the C-terminus of GFP) (from UniProt B0KW95 836-906)” has an inhibition of luciferase activity (LEF-1-driven transactivation) in SW480 cells of 70%.

“IL2R/N-cadherin chimera (extracellular and transmembrane domains of IL2Rα fused to the intracellular domain of N-cadherin, amino acids 752-912)” was tested, and the inhibition of TOPFLASH-responsive transcription (luciferase) in SW480 cells was 50%.

Reference: patent US20020045591A1, “Methods and therapeutic compositions for treating cancer” (priority 1998, published 2002)
